Assay results: paper PMC6935267 (Cell Reports, 2019)

Molecular target: T1, MERS-CoV S1-NTD (residues 1-351) with 8xHis-tag and Twin-Strep-tag (MERS-CoV (deposit 6PXH of this paper))
T1 chain: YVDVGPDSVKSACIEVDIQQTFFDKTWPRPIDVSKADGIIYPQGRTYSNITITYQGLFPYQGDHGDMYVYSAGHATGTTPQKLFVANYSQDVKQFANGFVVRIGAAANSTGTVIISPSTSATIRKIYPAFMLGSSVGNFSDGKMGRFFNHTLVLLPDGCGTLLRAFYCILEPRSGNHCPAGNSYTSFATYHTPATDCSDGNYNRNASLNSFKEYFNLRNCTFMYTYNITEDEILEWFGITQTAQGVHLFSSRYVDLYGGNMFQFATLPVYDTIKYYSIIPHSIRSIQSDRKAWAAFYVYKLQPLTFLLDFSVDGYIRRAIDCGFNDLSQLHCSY
Experiment: SPR

B1: G2 Fab (Fab, V domains shown)
VH: QVQLQQSGGELVKPGASVKLSCKTSGFTFSSSYISWLKQKPGQSLEWIAWIYAGTGGTEYNQKFTGKAQVTVDTSSSTAYMQFSSLTTEDSAIYYCARGGSSFAMDYWGQGTSVTVSS
VL: not shown
Q: For B1, which Kd is on record?
A: 0.028 µM
